Residue numbers refer to the chain shown, from its start. Each block holds one binder with its values, some of them ahead of it.
Experiments:
[1] = molecular target: T1, discontinuous epitope mimic CILQ2HLSSTTAQVTQCI2NADLGWHISPSFKC (Cys-acetamidomethyl (Cys-acm, printed as '2') at positions 5 and 19; Cys at positions 1, 17 and 33 used for the T3 CLIPS scaffold (as for Set 8)); assay: Pepscan-based peptide array ELISA, discontinuous epitope mimics
T1 peptide: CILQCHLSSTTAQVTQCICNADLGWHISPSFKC
Protocol: (§1) The binding of antibody to each of the synthesized peptides was tested in a pepscan-based ELISA. The peptide arrays were incubated with primary antibody solution (overnight at 4° C.). After washing, the peptide arrays were incubated with a 1/1000 dilution of a goat anti-human HRP conjugate (Southern Biotech) for one hour at 25° C. […] After one hour, the color development was measured. The color development was quantified with a charge coupled device (CCD)—camera and an image processing system.

[2] = molecular target: T2, discontinuous epitope mimic CKDRVAPGPGLGLTLQCI2NADLGWHISPSFKC (Cys-acetamidomethyl (Cys-acm, printed as '2') at position 19; Cys at positions 1, 17 and 33 used for the T3 CLIPS scaffold (as for Set 8)); assay: as above
T2 peptide: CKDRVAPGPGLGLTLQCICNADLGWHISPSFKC
Protocol: as §1

[3] = molecular target: T3, human TIGIT (T-cell immunoreceptor with Ig and ITIM domains) (human, UniProt Q495A1 22-244); assay: competition flow cytometry against hCD112-Fc-AlexaFluor647 on 293-hTIGIT cells
T3 construct: also called hTIGIT
T3 sequence: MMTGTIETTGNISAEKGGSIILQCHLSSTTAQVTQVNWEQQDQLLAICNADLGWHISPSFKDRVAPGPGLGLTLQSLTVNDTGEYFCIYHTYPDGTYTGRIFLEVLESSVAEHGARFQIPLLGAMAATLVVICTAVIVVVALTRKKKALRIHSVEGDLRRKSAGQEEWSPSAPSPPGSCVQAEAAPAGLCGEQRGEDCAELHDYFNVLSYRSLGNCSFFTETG

[4] = molecular target: T3, human TIGIT (T-cell immunoreceptor with …); assay: competition flow cytometry against 1 ug/mL hCD155-Fc-AlexaFluor647 on 293-hTIGIT cells
Protocol: Samples were analyzed on a CytoFLEX flow cytometer. Median fluorescence intensity of the FSC/SSC gated population was determined for each antibody concentration. Percent blockade was calculated relative to the MFI of the no antibody control. NonLinear regression of Log(X) transformed data was performed in GraphPad Prism 6.

[5] = molecular target: T3, human TIGIT (T-cell immunoreceptor with …); assay: flow cytometry titration on HEK 293 cells expressing human TIGIT
cynomolgus monkey TIGIT = molecular target: T4, cynomolgus monkey TIGIT (cynomolgus monkey); assay: flow cytometry, MFI on cyno TIGIT HEK 293 cells over parental HEK 293 cells
T4 construct: On HEK 293 cells (lentiviral transduction) and on cynomolgus peripheral blood T cells; also called cyno TIGIT
Protocol: (§2) HEK 293 cells were engineered to stably express high levels of human, mouse or cynomolgus monkey TIGIT by lentiviral transduction. […] Cells were then washed twice with wash buffer and incubated with anti-human IgG conjugated to PE for 15 minutes on ice. Cells were then washed twice with wash buffer and analyzed by flow cytometry on a FACS Canto II instrument (BD Biosciences). Fold over background (FOB) was calculated as the median fluorescence intensity (MFI) of the anti-TIGIT clone bound to target-positive cells divided by the MFI of the anti-TIGIT clone bound to target-negative cells.

[6] = molecular target: T3, human TIGIT (T-cell immunoreceptor with …); assay: flow cytometry, MFI on human TIGIT HEK 293 cells over parental HEK 293 cells
Protocol: as §2

T4 sequence (chain, as listed by the source limits assumed): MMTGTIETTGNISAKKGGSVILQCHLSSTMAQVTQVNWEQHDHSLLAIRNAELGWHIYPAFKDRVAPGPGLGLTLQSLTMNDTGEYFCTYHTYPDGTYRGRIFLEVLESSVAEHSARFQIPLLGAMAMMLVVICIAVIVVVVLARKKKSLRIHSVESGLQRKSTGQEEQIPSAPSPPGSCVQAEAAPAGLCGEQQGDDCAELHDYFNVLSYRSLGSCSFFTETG

B2: Clone 13 (antibody, human IgG1, V domains shown)
VH: QVQLVQSGAEVKKPGSSVKVSCKASGGTFSSYAISWVRQAPGQGLEWMGSIIPIFGTANYAQKFQGRVTITADESTSTAYMELSSLRSEDTAVYYCARGPSEVGAILGYVWFDPWGQGTLVTVSS
VL: not shown
notes: Fully human IgG1 ('c13 hIgG1'); also called anti-TIGIT clone 13; c13 hIgG1
IC50 (read off the curve) [3]: ~0.09 µg/mL
IC50 (read off the curve) [4]: ~0.2 µg/mL

B4: Clone 13D (antibody, V domains shown)
VH: B2 VH with S30L, Y32S, I54Y, T57K, G104K, A105G
VL: not shown
notes: IgG
FOB (Fold Over Background) (cynomolgus monkey TIGIT): 245 fold
FOB (Fold Over Background) [6]: 190 fold

Continued, values first:

binding result [1]: binds
binding result [2]: binds
B1: Clone 25 (antibody, V domains shown)
VH: QVQLVQSGAEVKKPGASVKVSCKASGYTFTSYAISWVRQAPGQGLEWMGWISAYNGNTNYAQKLQGRVTMTTDTSTSTAYMELRSLRSDDTAVYYCARDLSSFWSGDVLGAFDIWGQGTMVTVSS
VL: DIQMTQSPSSLSASVGDRVTITCRASQSISSYLNWYQQKPGKAPKLLIYAASSLQSGVPSRFSGSGSGTDFTLTISSLQPEDFATYYCQQSVPPRTFGGGTKVEIK
notes: Fully human IgG from a yeast presentation system; also called anti-TIGIT clone 25

EC50 [5]: 0.04 µg/mL
IC50 (read off the curve) [3]: ~0.06 µg/mL
B3: mouse IgG2a chimera of anti-TIGIT clone 13 (antibody, V domains shown)
VH: B2 VH
VL: not shown
notes: also called c13 mIgG2a
